In patent US20100104509A1 (Bristol-Myers Squibb, published 2010):
Numbering of substitutions follows the chain as printed.

T1: human CD19 expressed on the cell surface (human, UniProt P15391 20-556)
T1 construct: CHO cells were transfected with the full-length cDNA encoding the transmembrane form of CD19; Raji, Daudi and ARH-77 cells carry endogenous CD19; also called CD19 on Raji B tumor cells; CD19 on Daudi B tumor cells
T1 sequence: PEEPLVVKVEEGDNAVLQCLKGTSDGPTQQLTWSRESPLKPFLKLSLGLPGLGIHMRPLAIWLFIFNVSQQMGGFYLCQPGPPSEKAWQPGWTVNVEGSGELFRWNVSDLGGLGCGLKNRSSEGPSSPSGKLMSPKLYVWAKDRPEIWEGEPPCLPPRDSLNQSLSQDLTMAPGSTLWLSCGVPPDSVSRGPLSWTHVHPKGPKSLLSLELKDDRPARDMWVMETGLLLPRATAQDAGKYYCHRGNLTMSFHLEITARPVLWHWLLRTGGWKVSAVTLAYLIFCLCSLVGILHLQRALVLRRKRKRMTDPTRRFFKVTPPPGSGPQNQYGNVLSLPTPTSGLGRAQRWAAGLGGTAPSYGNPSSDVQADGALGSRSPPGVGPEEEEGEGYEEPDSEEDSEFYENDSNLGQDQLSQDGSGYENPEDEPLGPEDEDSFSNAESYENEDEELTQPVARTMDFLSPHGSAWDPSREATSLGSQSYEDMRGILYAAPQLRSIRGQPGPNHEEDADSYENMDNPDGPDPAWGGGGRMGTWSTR

B1: 5G7-N19K (antibody, V domains shown)
VH: EVQLVQSGAEVKKPGESLKISCKGSGYSFTSYWIGWVRQMPGKGLEWMGIIYPGDSDTRYSPSFQGQVTISADKSINTAYLQWSSLKASDTAMYYCARGVSMIWGVIMDVWGQGTTVTVSS
VL: AIQLTQSPSSLSASVGDRVTITCRASQGISSALAWYQQKPGKAPKLLIYDASSLESGVPSRFSGSGSGTDFTLTISSLQPEDFATYYCQQFNSYPWTFGQGTKVEIK
notes: also called 5G7 with N-I-S changed to K-I-S
B2: human monoclonal antibody 13F1 (antibody, V domains shown)
VH: EVQLVQSGAEVKKPGESLQISCKGSGYTFTNYWIAWVRQMPGKGLEWMGIIYPGDSDTRYSPSFQGQVTISADKSISTAYLQWSGLKASDTAMYYCARQGYSSGWRSYYGMGVWGQGTTVTVSS
VL: B1 VL with W96H, V104L
B3: human monoclonal antibody 21D4a (antibody, V domains shown)
VH: B1 VH with T30S, Y32S, G54D, N77R, G99H, S101T, M108I, V110F, T116L
VL: B1 VL with W96F, Q100P, E105D
notes: Same heavy chain as 21D4, paired with the second light chain made by the 21D4 hybridoma
B4: human monoclonal antibody 5G7 (antibody, V domains shown)
VH: B1 VH with K19N
VL: B1 VL
modifications: N-linked carbohydrate in the variable (Fab) region at the N-I-S motif starting at position 19
B5: 5G7-N19Q (antibody, V domains shown)
VH: B1 VH with K19Q
VL: B1 VL
notes: Glycosylation-site variant of 5G7; also called 5G7 with N-I-S changed to Q-I-S
B6: human monoclonal antibody 21D4 (antibody, V domains shown)
VH: B1 VH with T30S, Y32S, G54D, N77R, G99H, S101T, M108I, V110F, T116L
VL: B1 VL with W96Y, V104L
notes: Fully human antibody from a KM mouse hybridoma, kappa light chain; also called HuMAb 21D4; parental anti-CD19 antibody 21D4
B7: human monoclonal antibody 3C10 (antibody, V domains shown)
VH: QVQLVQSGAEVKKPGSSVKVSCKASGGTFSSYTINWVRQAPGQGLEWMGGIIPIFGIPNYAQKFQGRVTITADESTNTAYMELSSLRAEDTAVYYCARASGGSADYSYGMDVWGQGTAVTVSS
VL: DIQMTQSPSSLSASVGDRVTITCRASQGISSWLAWYQQKPEKAPKSLIYAASSLQSGVPSRFSGSGSGTDFTLTISSLQPEDFATYYCQQYKRYPYTFGQGTKLEIK
B8: human monoclonal antibody 47G4 (antibody, V domains shown)
VH: QVQLVQSGAEVKKPGSSVKVSCKDSGGTFSSYAISWVRQAPGQGLEWMGGIIPIFGTTNYAQQFQGRVTITADESTSTAYMELSSLRSEDTAVYYCAREAVAADWLDPWGQGTLVTVSS
VL: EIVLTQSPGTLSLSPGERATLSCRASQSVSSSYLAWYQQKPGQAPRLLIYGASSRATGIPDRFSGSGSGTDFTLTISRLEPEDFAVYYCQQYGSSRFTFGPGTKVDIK
notes: Human kappa antibody; It was 125I-labelled in the Scatchard assay; also called HuMAb 47G4; CD19 HuMAb 47G4

Each binder was assayed against T1, human CD19 expressed on the cell surface (assay: Raji direct binding FACS, Geo Mean; unit from the concentration axis).
Method: (§1) Binding of the CD19 HuMAbs by flow cytometry to the B cell tumor lines Raji and Daudi, or to a CHO-CD19 transfected cell line was assessed. CHO cells were transfected with an expression plasmid containing the full length cDNA encoding the transmembrane form of CD19. […] A known murine anti-CD19 antibody was used as a positive control. The cells were washed and detected by either a phycoerythrin-labeled anti-human or anti-mouse secondary antibody and analyzed by flow cytometry. The results for binding to the CHO-CD19 cell line, Daudi B cell line, Raji B cell line and an expanded binding set against the Raji B cell line are shown in FIGS. 25A, 25B, 25C and 25D, respectively. […] All results are shown as measured by the geometric mean fluorescent intensity (GMFI) of staining.

B1 and B2 are within 1.5-fold of each other in EC50: 0.224 mg/L for the first, 0.266 mg/L for the second.

B3 and B4 are within 1.5-fold of each other in EC50: 0.129 mg/L for the first, 0.188 mg/L for the second.

Compared with B5, B6 is 1.5-fold lower in EC50: 0.217 mg/L for the first, 0.141 mg/L for the second.

With B7 the EC50 was 0.24 mg/L.

What follows are binders tested against T1, human CD19 expressed on the cell surface (assay: Scatchard analysis; 125I-labelled antibody on Raji cells, 4 °C).
Method: Raji cells were obtained from ATCC (Accession #CCL-86) and grown in RPMI containing 10% fetal bovine serum (FBS). The cells were washed twice with RPMI containing 10% FBS at 4° C. and the cells were adjusted to 4×10⁷ cells/ml in RPMI media containing 10% fetal bovine serum (binding buffer containing 24 mM Tris pH 7.2, 137 mM NaCl, 2.7 mN KCl, 2 mM glucose, 1 mM CaCl₂, 1 mM MgCl₂, 0.1% BSA). Millipore plates (MAFB NOB) were coated with 1% nonfat dry milk in water and stored a 4° C. overnight. The plates were washed with binding buffer and 25 μl of unlabeled antibody (1000-fold excess) in binding buffer was added to control wells in a Millipore 96 well glass fiber filter plate (non-specific binding NSB). Twenty-five microliters of buffer alone was added to the maximum binding control well (total binding). […] The plates were incubated for 2 hours at 200 RPM on a shaker at 4° C. At the completion of the incubation the Millipore plates were washed three times with 0.2 ml of cold wash buffer (24 mM Tris pH 7.2, 500 mM NaCl, 2.7 mN KCl, 2 mM glucose, 1 mM CaCl₂, 1 mM MgCl₂, 0.1% BSA). The filters were removed and counted in a gamma counter. Evaluation of equilibrium binding was performed using single site binding parameters with the Prism software (San Diego, Calif.).

First: B6
Second: B8
The Kd of the first is 5.6-fold lower: roughly 2.14 nM for the first, roughly 12 nM for the second. The first binds more tightly here.

The binders below were run against T1, human CD19 expressed on the cell surface (assay: Flow cytometry on CHO cells transfected with human CD19, GMFI).
Method: as §1

In the case of B6, the “EC50 (read off the curve)” value is reported as roughly 0.1 mg/L.

What follows are binders tested against T1, human CD19 expressed on the cell surface (assay: FACS competition on Raji cells: unlabeled antibody titrated against biotinylated 21D4a at 0.3 ug/mL, Geo Mean (PE); unit from the concentration axis).

B1 and B2 are within 1.5-fold of each other in EC50: 2.38 nM for the first, 1.97 nM for the second.

Compared with B3, B4 is 3.7-fold higher in EC50: 0.767 nM for the first, 2.85 nM for the second. The first is the more potent here.

Going from B5 to B6, the EC50 falls from 2.63 nM to 0.832 nM (3.2-fold).

In the case of B7, the EC50 is reported as 0.686 nM.

What follows are binders tested against T1, human CD19 expressed on the cell surface (assay: FACS competition on Raji cells: unlabeled antibody titrated against biotinylated 21D4 at 0.3 ug/mL, Geo Mean (PE); unit from the concentration axis).

B1 and B2 are within 1.5-fold of each other in EC50: 2.1 nM for the first, 1.99 nM for the second.

Going from B3 to B4, the EC50 rises from 0.694 nM to 2.45 nM (3.5-fold). The first is the more potent here.

First: B5
Second: B6
The EC50 of the first is 3.3-fold higher: 2.16 nM for the first, 0.655 nM for the second. The second is the more potent here.

B7 was tested, and the EC50 was 0.628 nM.
